In paper PMC8108093 (Cell, 2018):

Target: His6-REV7_(R124A), recombinant (human, UniProt Q9UI95 1-211, R124A)
Assay: ITC

His6-REV7_(R124A), recombinant, sequence (Q9UI95 whole entry R124A): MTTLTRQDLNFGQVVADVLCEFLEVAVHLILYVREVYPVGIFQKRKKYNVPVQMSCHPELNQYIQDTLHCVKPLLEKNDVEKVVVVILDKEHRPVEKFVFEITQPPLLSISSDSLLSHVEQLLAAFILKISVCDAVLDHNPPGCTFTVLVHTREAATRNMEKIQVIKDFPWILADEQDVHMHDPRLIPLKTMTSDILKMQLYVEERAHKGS

- Kd: 15.8 nM
B1: RINN1_(28–83), recombinant (domain or fragment, human, UniProt Q6ZNX1 28-83, looked up)
chain: QDFPTRPLSRFIPWFPYDGSKLPLRPKRSPPVISEEAAEDVKQYLTISEHDAKSHS
